Source: IntAct's records for PubMed 18337722

B1: Ataxin-1 (Homo sapiens), P54253 (parent)
chain: MKSNQERSNECLPPKKREIPATSRSSEEKAPTLPSDNHRVEGTAWLPGNPGGRGHGGGRHGPAGTSVELGLQQGIGLHKALSTGLDYSPPSAPRSVPVATTLPAAYATPQPGTPVSPVQYAHLPHTFQFIGSSQYSGTYASFIPSQLIPPTANPVTSAVASAAGATTPSQRSQLEAYSTLLANMGSLSQTPGHKAEQQQQQQQQQQQQHQHQQQQQQQQQQQQQQHLSRAPGLITPGSPPPAQQNQYVHISSSPQNTGRTASPPAIPVHLHPHQTMIPHTLTLGPPSQVVMQYADSGSHFVPREATKKAESSRLQQAIQAKEVLNGEMEKSRRYGAPSSADLGLGKAGGKSVPHPYESRHVVVHPSPSDYSSRDPSGVRASVMVLPNSNTPAADLEVQQATHREASPSTLNDKSGLHLGKPGHRSYALSPHTVIQTTHSASEPLPVGLPATAFYAGTQPPVIGYLSGQQQAITYAGSLPQHLVIPGTQPLLIPVGSTDMEASGAAPAIVTSSPQFAAVPHTFVTTALPKSENFNPEALVTQAAYPAMVQAQIHLPVVQSVASPAAAPPTLPPYFMKGSIIQLANGELKKVEDLKTEDFIQSAEISNDLKIDSSTVERIEDSHSPGVAVIQFAVGEHRAQVSVEVLVEYPFFVFGQGWSSCCPERTSQLFDLPCSKLSVGDVCISLTLKNLKNGSVKKGQPVDPASVLLKHSKADGLAGSRHRYAEQENGINQGSAQMLSENGELKFPEKMGLPAAPFLTKIEPSKPAATRKRRWSAPESRKLEKSEDEPPLTLPKPSLIPQEVKICIEGRSNVGK
partner: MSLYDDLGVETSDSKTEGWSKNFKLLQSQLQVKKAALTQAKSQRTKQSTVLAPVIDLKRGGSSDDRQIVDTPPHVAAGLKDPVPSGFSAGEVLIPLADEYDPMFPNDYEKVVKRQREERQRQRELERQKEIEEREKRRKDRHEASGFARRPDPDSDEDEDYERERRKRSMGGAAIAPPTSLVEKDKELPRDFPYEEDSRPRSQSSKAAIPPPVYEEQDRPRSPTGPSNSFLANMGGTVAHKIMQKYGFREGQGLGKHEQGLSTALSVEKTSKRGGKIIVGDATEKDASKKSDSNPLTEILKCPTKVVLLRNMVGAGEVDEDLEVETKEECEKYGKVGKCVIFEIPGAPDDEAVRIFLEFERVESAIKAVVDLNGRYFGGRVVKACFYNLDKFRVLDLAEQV

Variants of: B1
Settings: with spf45_human RBM17, Q96I25

Row | Variant | effect of a mutation on the interaction
1 | S775A | disrupting interaction strength
